The record followed here is patent publication US10822723B2, “Fusion protein crystal comprising a moiety” (Agency for Science, Technology and Research, priority 2015, dated 2020).

The assay has as its target T1, PAK4cat (Homo sapiens, UniProt O96013).
T1 construct: PAK1 (1-545) and PAK4 (286-591), respectively; 6His (N); made in house; host or cells: Escherichia coli BL21-CodonPlus(DE3)
As to the kind of experiment: In vitro kinase assay, phosphorylation of GST-Raf13 by PAK4cat. The conditions noted are these: in vitro, FIG. 1d. Format: biochemical. The protocol:
Purified PAK1 or PAK4 (50 nM in 25-50 μl) were incubated with 10 μM GST-Raf1S338 peptide in 10 μM ATP (2 μCi of γ32P ATP) of kinase buffer (25 mM Hepes, pH 7.3, 0.1% Triton-X100, 50 mM KCl, 10 mM MgCl2, 1 mM DTT) at 30° C. for 20 min. Samples were analysed by SDS-polyacrylamide gel electrophoresis, or adsorption of the GST substrate mix onto PVDF membranes, followed by extensive washing to remove free γ32P-ATP. The synthetic peptides of 95% purity, as determined by HPLC and MS analyses (GenScript), were soluble in aqueous PBS. Stock solutions (10 mM) were quantified via calculated extinction coefficients and absorbance measurements at 280 nm and stored at −80° C. The diluted peptides were incubated at the indicated concentrations with the kinase on ice (10 min) before addition of γ32P ATP and subsequent incubation at 30° C. The synthetic peptide array (Jerini Biotools) was phosphorylated in situ as described previously.

T1 sequence (O96013 286-591): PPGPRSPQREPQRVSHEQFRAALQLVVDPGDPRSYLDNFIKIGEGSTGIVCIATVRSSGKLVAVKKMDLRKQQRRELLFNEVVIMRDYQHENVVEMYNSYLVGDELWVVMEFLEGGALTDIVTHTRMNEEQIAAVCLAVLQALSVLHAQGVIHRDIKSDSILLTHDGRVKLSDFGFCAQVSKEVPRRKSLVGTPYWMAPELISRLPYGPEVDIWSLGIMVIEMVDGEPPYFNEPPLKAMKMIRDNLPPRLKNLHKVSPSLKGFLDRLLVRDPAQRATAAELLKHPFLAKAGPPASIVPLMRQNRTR

B1: Inka1: human Inka1, endogenous protein inhibitor of PAK4 (protein)
chain: MDMHSARLDSFLSQLRWELLCGRDTGSPSMPGPLQPTSQTGPDVQPSHQLRASGALEEDSVCCVEEEEEEEEEAVVTEDRDAALGGPREHALDWDSGFSEVSGSTWREEELPVSQRPAPSAQPLRRQCLSVSGLPMPSRAPVASVPPVHHPRPKSTPDACLEHWQGLEAEDWTAALLNRGRSRQPLVLGDNCFADLVHNWMELPETGSEGGDGGGHRARARPPQFLLGLSEQLRRRLARARRTAMAGKRLSCPPRPEPELPADVSRFAALMSCRSRQPIICNDVS
modifications: left off: small tags and cut ends
Consider B1, for which the Ki was ~30 nM.

One may read the Ki as a dissociation constant, usually derived from enzyme kinetics or from competition with a known ligand. Read a low Ki as tighter binding.
